The results in this text go back to US20250262210A1 (TRUSTEES OF COLUMBIA UNIVERSITY IN THE CITY OF NEW YORK, published 2025).

Test [1] concerns the target T1, LZTR1 R810W-FLAG (human, UniProt Q8N653 1-840).
T1 construct: Stably expressed in U87 cells by lentivirus; also called LZTR1-FLAG-R810W; LZTR1 RW; not shown: FLAG tag
T1 sequence (looked up): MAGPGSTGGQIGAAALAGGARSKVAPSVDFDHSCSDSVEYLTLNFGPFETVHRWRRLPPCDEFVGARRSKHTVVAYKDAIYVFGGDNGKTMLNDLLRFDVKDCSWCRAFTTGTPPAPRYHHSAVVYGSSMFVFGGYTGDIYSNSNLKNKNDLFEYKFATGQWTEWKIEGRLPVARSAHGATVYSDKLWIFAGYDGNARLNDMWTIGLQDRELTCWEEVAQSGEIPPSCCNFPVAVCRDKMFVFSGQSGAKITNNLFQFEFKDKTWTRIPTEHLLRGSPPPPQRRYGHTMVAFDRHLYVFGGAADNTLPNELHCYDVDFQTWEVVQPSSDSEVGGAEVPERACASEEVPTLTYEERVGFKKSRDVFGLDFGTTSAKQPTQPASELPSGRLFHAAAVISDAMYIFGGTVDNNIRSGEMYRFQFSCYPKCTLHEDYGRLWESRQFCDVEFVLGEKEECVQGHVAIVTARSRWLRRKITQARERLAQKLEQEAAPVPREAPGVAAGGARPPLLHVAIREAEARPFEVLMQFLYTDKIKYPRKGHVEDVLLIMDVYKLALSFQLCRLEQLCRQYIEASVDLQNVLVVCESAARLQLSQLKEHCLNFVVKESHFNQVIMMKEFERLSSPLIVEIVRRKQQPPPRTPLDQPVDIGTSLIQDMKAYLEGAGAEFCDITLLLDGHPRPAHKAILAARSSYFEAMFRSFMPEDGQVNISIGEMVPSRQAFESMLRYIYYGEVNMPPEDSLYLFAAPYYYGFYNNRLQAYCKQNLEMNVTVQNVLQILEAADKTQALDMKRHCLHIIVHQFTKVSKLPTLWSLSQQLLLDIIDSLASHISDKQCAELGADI
The test can be described thus: IP/MS, LZTR1 R810W-FLAG, U87. The method in brief: (§1)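 Extracted peptides in 3% acetonitrile/0.1% formic acid ran on a 50 cm C18 column into an Orbitrap Fusion, with MaxQuant identification and spectral counting.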

Test [2] deals with T2, LZTR1-FLAG (human, UniProt Q8N653 1-840).
T2 construct: Expressed in HEK 293T, HeLa or U87 cells; used as cell lysate; also called LZTR1 wild type-FLAG; LZTR1 WT; not shown: FLAG tag at the C-terminus
T2 sequence (looked up): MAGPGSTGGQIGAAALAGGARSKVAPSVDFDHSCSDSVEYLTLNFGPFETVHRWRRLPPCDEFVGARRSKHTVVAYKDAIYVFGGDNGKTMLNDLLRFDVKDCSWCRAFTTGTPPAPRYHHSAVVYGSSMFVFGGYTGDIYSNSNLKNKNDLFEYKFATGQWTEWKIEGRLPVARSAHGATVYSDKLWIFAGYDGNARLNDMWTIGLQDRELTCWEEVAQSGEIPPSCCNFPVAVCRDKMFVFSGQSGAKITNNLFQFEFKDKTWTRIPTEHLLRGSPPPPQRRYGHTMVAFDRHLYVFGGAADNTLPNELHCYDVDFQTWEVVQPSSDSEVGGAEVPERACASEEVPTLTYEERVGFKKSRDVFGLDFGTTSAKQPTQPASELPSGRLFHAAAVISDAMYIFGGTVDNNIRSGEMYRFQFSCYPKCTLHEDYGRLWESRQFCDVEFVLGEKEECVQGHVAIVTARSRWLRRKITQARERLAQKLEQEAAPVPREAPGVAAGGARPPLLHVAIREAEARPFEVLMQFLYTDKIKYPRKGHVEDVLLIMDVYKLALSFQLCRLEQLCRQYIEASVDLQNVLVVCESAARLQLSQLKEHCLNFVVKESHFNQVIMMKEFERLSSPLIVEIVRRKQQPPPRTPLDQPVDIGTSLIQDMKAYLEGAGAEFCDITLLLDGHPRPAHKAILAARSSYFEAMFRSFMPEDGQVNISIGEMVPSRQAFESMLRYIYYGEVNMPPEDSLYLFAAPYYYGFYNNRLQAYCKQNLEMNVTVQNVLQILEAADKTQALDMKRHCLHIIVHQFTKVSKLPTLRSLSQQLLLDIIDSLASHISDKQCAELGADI
As to the kind of experiment: IP/MS, LZTR1 wild type-FLAG, U87. The method in brief:
as §1

B1: KLHDC10 (other, human, UniProt Q6PID8 1-442, looked up)
chain: MSAAQGWDRNRRRGGGAAGAGGGGSGAGGGSGGSGGRGTGQLNRFVQLSGRPHLPGKKKIRWDPVRRRFIQSCPIIRIPNRFLRGHRPPPARSGHRCVADNTNLYVFGGYNPDYDESGGPDNEDYPLFRELWRYHFATGVWHQMGTDGYMPRELASMSLVLHGNNLLVFGGTGIPFGESNGNDVHVCNVKYKRWALLSCRGKKPSRIYGQAMAIINGSLYVFGGTTGYIYSTDLHKLDLNTREWTQLKPNNLSCDLPEERYRHEIAHDGQRIYILGGGTSWTAYSLNKIHAYNLETNAWEEIATKPHEKIGFPAARRCHSCVQIKNDVFICGGYNGEVILGDIWKLNLQTFQWVKLPATMPEPVYFHCAAVTPAGCMYIHGGVVNIHENKRTGSLFKIWLVVPSLLELAWEKLLAAFPNLANLSRTQLLHLGLTQGLIERLK
Take B1: the binding result in test [1] and in test [2] was “binds” each time.

B2: MALT1 (other, human, UniProt Q9UDY8 2-824, looked up)
chain: SLLGDPLQALPPSAAPTGPLLAPPAGATLNRLREPLLRRLSELLDQAPEGRGWRRLAELAGSRGRLRLSCLDLEQCSLKVLEPEGSPSLCLLKLMGEKGCTVTELSDFLQAMEHTEVLQLLSPPGIKITVNPESKAVLAGQFVKLCCRATGHPFVQYQWFKMNKEIPNGNTSELIFNAVHVKDAGFYVCRVNNNFTFEFSQWSQLDVCDIPESFQRSVDGVSESKLQICVEPTSQKLMPGSTLVLQCVAVGSPIPHYQWFKNELPLTHETKKLYMVPYVDLEHQGTYWCHVYNDRDSQDSKKVEIIIGRTDEAVECTEDELNNLGHPDNKEQTTDQPLAKDKVALLIGNMNYREHPKLKAPLVDVYELTNLLRQLDFKVVSLLDLTEYEMRNAVDEFLLLLDKGVYGLLYYAGHGYENFGNSFMVPVDAPNPYRSENCLCVQNILKLMQEKETGLNVFLLDMCRKRNDYDDTIPILDALKVTANIVFGYATCQGAEAFEIQHSGLANGIFMKFLKDRLLEDKKITVLLDEVAEDMGKCHLTKGKQALEIRSSLSEKRALTDPIQGTEYSAESLVRNLQWAKAHELPESMCLKFDCGVQIQLGFAAEFSNVMIIYTSIVYKPPEIIMCDAYVTDFPLDLDIDPKDANKGTPEETGSYLVSKDLPKHCLYTRLSSLQKLKEHLVFTVCLSYQYSGLEDTVEDKQEVNVGKPLIAKLDMHRGLGRKTCFQTCLMSNGPYQSSAATSGGAGHYHSLQDPFHGVYHSHPGNPSNVTPADSCHCSRTPDAFISSFAHHASCHFSRSNVPVETTDEIPFSFSDRLRISEK
In the case of B2, the binding result in test [1] and in test [2] was “binds” throughout.

B3: KLHL11 (other, human, UniProt Q9NVR0 16-708, looked up)
chain: ASLQVLEMESMETAAAGSAGLAAEVRGSGTVDFGPGPGISAMEASGGDPGPEAEDFECSSHCSELSWRQNEQRRQGLFCDITLCFGGAGGREFRAHRSVLAAATEYFTPLLSGQFSESRSGRVEMRKWSSEPGPEPDTVEAVIEYMYTGRIRVSTGSVHEVLELADRFLLIRLKEFCGEFLKKKLHLSNCVAIHSLAHMYTLSQLALKAADMIRRNFHKVIQDEEFYTLPFHLIRDWLSDLEITVDSEEVLFETVLKWVQRNAEERERYFEELFKLLRLSQMKPTYLTRHVKPERLVANNEVCVKLVADAVERHALRAENIQSGTCQHPTSHVSLLPRYGQNMDVIMVIGGVSEGGDYLSECVGYFVDEDRWVNLPHIHNHLDGHAVAVTESYVYVAGSMEPGFAKTVERYNPNLNTWEHVCSLMTRKHSFGLTEVKGKLYSIGGHGNFSPGFKDVTVYNPELDKWHNLESAPKILRDVKALAIEDRFVYIAARTPVDRDTEDGLKAVITCYDTETRQWQDVESLPLIDNYCFFQMSVVNSNFYQTASCCPKSYCLENEEAVRKIASQVSDEILESLPPEVLSIEGAAICYYKDDVFIIGGWKNSDDIDKQYRKEAYRYCAERKRWMLLPPMPQPRCRATACHVRIPYRYLHGTQRYPMPQNLMWQKDRIRQMQEIHRHALNMRRVPSSQIEC
For the molecule B3, the binding result in test [1] and in test [2] was “binds” each time.

B4: KLHL21 (other, human, UniProt Q9UJP4 1-597, looked up)
chain: MERPAPLAVLPFSDPAHALSLLRGLSQLRAERKFLDVTLEAAGGRDFPAHRAVLAAASPYFRAMFAGQLRESRAERVRLHGVPPDMLQLLLDFSYTGRVAVSGDNAEPLLRAADLLQFPAVKEACGAFLQQQLDLANCLDMQDFAEAFSCSGLASAAQRFILRHVGELGAEQLERLPLARLLRYLRDDGLCVPKEEAAYQLALRWVRADPPRRAAHWPQLLEAVRLPFVRRFYLLAHVEAEPLVARCPPCLRLLREARDFQAARYDRHDRGPCPRMRPRPSTGLAEILVLVGGCDQDCDELVTVDCYNPQTGQWRYLAEFPDHLGGGYSIVALGNDIYVTGGSDGSRLYDCVWRYNSSVNEWAEVAPMLKAREYHSSSVLDGLLYVVAADSTERYDHTTDSWEALQPMTYPMDNCSTTACRGRLYAIGSLAGKETMVMQCYDPDTDLWSLVDCGQLPPWSFAPKTATLNGLMYFVRDDSAEVDVYNPTRNEWDKIPSMNQVHVGGSLAVLGGKLYVSGGYDNTFELSDVVEAYDPETRAWSVVGRLPEPTFWHGSVSIFRQFMPQTFSGGRGFELDSGSDDMDPGRPRPPRDPDELH
B4: the binding result in test [1] and in test [2] was “binds” throughout.

B5: KLHL26 (other, human, UniProt Q53HC5 2-615, looked up)
chain: AESGGSSGGAGGGGAFGAGPGPERPNSTADKNGALKCTFSAPSHSTSLLQGLATLRAQGQLLDVVLTINREAFPAHKVVLAACSDYFRAMFTGGMREASQDVIELKGVSARGLRHIIDFAYSAEVTLDLDCVQDVLGAAVFLQMLPVVELCEEFLKAAMSVETCLNIGQMATTFSLASLRESVDAFTFRHFLQIAEEEDFLRLPLERLVFFLQSNRLQSCAEIDLFRAAVRWLQHDPARRPRASHVLCHIRFPLMQSSELVDSVQTLDIMVEDVLCRQYLLEAFNYQVLPFRQHEMQSPRTAVRSDVPSLVTFGGTPYTDSDRSVSSKVYQLPEPGARHFRELTEMEVGCSHTCVAVLDNFVYVAGGQHLQYRSGEGAVDACYRYDPHLNRWLRLQAMQESRIQFQLNVLCGMVYATGGRNRAGSLASVERYCPRRNEWGYACSLKRRTWGHAGAASGGRLYISGGYGISVEDKKALHCYDPVADQWEFKAPMSEPRVLHAMVGAGGRIYALGGRMDHVDRCFDVLAVEYYVPETDQWTSVSPMRAGQSEAGCCLLERKIYIVGGYNWRLNNVTGIVQVYNTDTDEWERDLHFPESFAGIACAPVLLPRAGTRR
Take B5: the binding result in test [1] and in test [2] was “binds” in each case.

B6: MAEA (other, human, UniProt Q7L5Y9 1-396, looked up)
chain: MAVQESAAQLSMTLKVQEYPTLKVPYETLNKRFRAAQKNIDRETSHVTMVVAELEKTLSGCPAVDSVVSLLDGVVEKLSVLKRKAVESIQAEDESAKLCKRRIEHLKEHSSDQPAAASVWKRKRMDRMMVEHLLRCGYYNTAVKLARQSGIEDLVNIEMFLTAKEVEESLERRETATCLAWCHDNKSRLRKMKSCLEFSLRIQEFIELIRQNKRLDAVRHARKHFSQAEGSQLDEVRQAMGMLAFPPDTHISPYKDLLDPARWRMLIQQFRYDNYRLHQLGNNSVFTLTLQAGLSAIKTPQCYKEDGSSKSPDCPVCSRSLNKLAQPLPMAHCANSRLVCKISGDVMNENNPPMMLPNGYVYGYNSLLSIRQDDKVVCPRTKEVFHFSQAEKVYIM
Regarding B6, the binding result in test [1] and in test [2] was “binds” each time.
